This passage reports stoichiometry N results from paper PMC8466245.

Assay [1] deals with Glycymeris yessoensis lectin (GYL) (Glycymeris yessoensis). Nature of the assay: MALDI-TOF mass spectrometry; Ultraflex III MALDI-TOF/TOF; singly charged ions of the subunit and of the subunit dimer.
The target is the same in assay [2]. Nature of the assay: SDS-PAGE without and with DTT; 15% separation gel, in the absence and presence of 10 mM DTT; disulfide-linked (covalent) dimer to subunits.

In the case of “Glycymeris yessoensis lectin (GYL) (natural protein)”, the stoichiometry N in assay [1] and in assay [2] was 2 throughout.
